Substitutions are numbered along the chain they refer to.
T1: biotinylated EpoR (Abbott CHO cell derived ref.#RB69084:4) (UniProt P19235 25-250, limits assumed, biotinylated with biotin-NHS (sites not given))
T1 construct: also called biotin EpoR; biotin-EpoR
T1 sequence (looked up): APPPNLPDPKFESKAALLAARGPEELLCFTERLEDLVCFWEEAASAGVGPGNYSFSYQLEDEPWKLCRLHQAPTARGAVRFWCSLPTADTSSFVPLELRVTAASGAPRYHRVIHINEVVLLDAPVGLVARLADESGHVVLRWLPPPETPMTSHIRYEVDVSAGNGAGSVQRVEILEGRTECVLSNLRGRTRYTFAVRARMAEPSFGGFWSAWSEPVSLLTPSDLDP

T2: soluble human EPO receptor (human, UniProt P19235 25-250, limits assumed)
T2 construct: Only called 'soluble'
T2 sequence (looked up): T1 sequence (looked up)

B1: human anti-EPO-R antibody expressed by the cell line designated ABT2-SCX-254 (antibody, human IgG2, V domains shown)
VH: QVQLVESGGGVVQPGRSLRLSCAASGFTFSSYGMHWVRQAPGKGLEWVAVIWFDGNNKFYADSVKGRFTISRDNSKNTLYLQMNSLRVEDTAVYYCARGGSYWDYWGQGTLVTVSS
VL: DIVMTQTPLFSFVMIGQPASISCRSRQSLVHSDGNTYLNWLQQRPGQPPRLLIYKTSNRFSGVPDRFSGSGAGTDFTLKISRVEAEDVGVYYCMQATQFPITFGQGTRLEIK
notes: also called Ab254
B2: human anti-EPO-R antibody expressed by the cell line designated ABT2-SCX-054 (antibody, V domains shown)
VH: B1 VH with S31K, I51L, F53Y, N56S, F59Y, V88A, G100P, S101Y, W103F
VL: not shown
notes: also called ABT2-SCX-54; Ab54
B3: human anti-EPO-R antibody expressed by the cell line designated ABT2-SCX-060 (antibody, human IgG2, V domains shown)
VH: QVQLVESGGGVVQPGRSLRLSCAASGFTFSSYGMHWVRQAPGKGLEWVAVISYDGSNKYYADSVKGRFTISRDNSKNTLYLQMNSLRVEDTAVYYCARDHGGRYVYDYGMDVWGQGTTVTVSS
VL: DIQMTQSPSSVSASVGDRVSITCRASQGISSWLAWYQQKPGKAPTLLIYAASSLQRGVPSRFSGSGSGTDFTLTISSLQPEDFATYFCQQANSFPFTFGPGTKVDIK
notes: also called Ab60
B4: Ab198 (human anti-EPO-R antibody expressed by the cell line designated ABT2-SCX-198) (antibody, human IgG2, V domains shown)
VH: B3 VH with A23V
VL: B3 VL with V15I, S53T
B5: human anti-EPO-R antibody expressed by the cell line designated ABT2-SCX-003 (antibody, human IgG2, V domains shown)
VH: B3 VH
VL: B3 VL with A34V, T45A
notes: also called Ab3
B6: human anti-EPO-R antibody expressed by the cell line designated ABT2-SCX-022 (antibody, human IgG2, V domains shown)
VH: B3 VH with A49V
VL: B3 VL
notes: also called Ab22
B7: human anti-EPO-R antibody expressed by the cell line designated ABT2-SCX-102 (antibody, human IgG2, V domains shown)
VH: B3 VH
VL: B3 VL with T45K, L46R
notes: also called Ab102
B8: human anti-EPO-R antibody expressed by the cell line designated ABT2-SCX-135 (antibody, human IgG2, V domains shown)
VH: B3 VH
VL: B3 VL with A13T, S30G, K42Q, S76N, I106V
notes: also called Ab135
B9: human anti-EPO-R antibody expressed by the cell line designated ABT2-SCX-145 (antibody, human IgG2, V domains shown)
VH: B3 VH
VL: B3 VL with S30G, K42Q, S76N, I106V
notes: also called Ab145
B10: human anti-EPO-R antibody expressed by the cell line designated ABT2-SCX-267 (antibody, human IgG2, V domains shown)
VH: B3 VH with R98K
VL: B3 VL with S30G, K42Q, S76N, I106V
notes: also called Ab267
B11: Ab12 (human anti-EPO-R antibody expressed by the cell line designated ABT2-SCX-012) (antibody, human IgG2, V domains shown)
VH: QVQLQESGPGLVKPSETLSLTCTVSGASISSYYWSWIRQPPGKGLEWIGYIYYSGSTNYNPSLKSRVTISVDTSKNQFSLKLRSVTAADTAVYYCARERLGIGDYWGQGTLVTVSS
VL: DIQLTQSPSSLSASVGDRVTITCRASQGIRNDLGWYQQKPGKAPKRLIYAASSLQSGVPSRFSGSGSGTEFTLTISSLQPEDFATYYCLQHNTYPPTFGQGTKVEIK
notes: also called AB-ABT2-XG2-012; ABT2-XG2-012

Target: T1, biotinylated EpoR (Abbott CHO cell …)
Assay: ELISA, biotin-EpoR on streptavidin plate, HEK 293 supernatant titrated 1:2
Experimental: The ELISA for antigen specific antibody secretion was performed as follows. Control plates were coated with […] Goat anti-human IgG H+L O/N. For the binding plates, biotin-EpoR (0.7 mcg/mL) was coated onto streptavadin 96 well plates (Sigma, St Louis, Mo.) for one hour at room temperature. The plates were washed five times with dH₂O. Recombinant antibodies were titrated 1:2 for 7 wells from the undiluted minilipofection supernatant. The plates were washed five times with dH₂O. A goat anti-human IgG Fc-specific HRP-conjugated antibody was added at a final concentration of 1 ug/mL for 1 hour at RT for the secretion and the binding ELISA. The plates were washed five times with dH₂O. The plates were developed with the addition of TMB chromogenic substrate (KPL, Gaithersburg, Md.) for 30 minutes and the ELISA was stopped by the addition of 1 M phosphoric acid. Each ELISA plate was analyzed to determine the optical density of each well at 450 nm.

Going from B1 to B2, the “Binding (dilution of the supernatant in ELISA)” value (“Binding” for short) rises from 8 1:n dilution of supernatant to > 64 1:n dilution of supernatant.

B3 and B4 cannot be ordered by “Binding” value: > 64 1:n dilution of supernatant for the first, > 64 1:n dilution of supernatant for the second.

B5 and B6 cannot be ordered by “Binding” value: > 64 1:n dilution of supernatant for the first, > 64 1:n dilution of supernatant for the second.

Going from B7 to B8, the “Binding” value falls from > 64 1:n dilution of supernatant to 4 1:n dilution of supernatant.

B9 and B10 cannot be ordered by “Binding” value: > 64 1:n dilution of supernatant for the first, > 64 1:n dilution of supernatant for the second.

B11 was tested, and the “Binding” value was > 64 1:n dilution of supernatant.

Target: T2, soluble human EPO receptor
Assay: SPR (Biacore 2000), antibody immobilised on the chip, soluble receptor 10-200 nM injected
Experimental: Immobilizations of antibody were performed using the default immobilization program in the Biacore software package. Antibodies were diluted to 10 ug/mL in the supplied acetate buffers to prescreen for the appropriate pH at which to conduct the immobilizations. For immobilizations, antibodies were diluted into the appropriate acetate buffer (10 mM acetate pH 4.0) and coupled directly to the chip surface using standard EDC chemistry at three different protein levels (500, 1000, and 1500 RU). The fourth flow cell was mock coupled with EDC to cap the carboxyl groups and provide a background surface as a negative control.
Binding studies were performed by successive injections of varying concentrations of soluble human EPO receptor over the chip surface (500 RU immobilized protein). […]
Data were fit to the models available in the BiaEvaluation 3.0.2 software package (Biacore). […] Dissociation constants were calculated directly from fitting to the Langmuir binding model. For the bivalent analyte model, the dissociation constants were calculated indirectly using the calculated values for the kinetic dissociation and kinetic association constants, kd and kₐ.

B4 and B11 are within 1.5-fold of each other in Kd: 13.9 nM for the first, 17.5 nM for the second.

Reference: patent US20040175379A1 (AbbVie / Abbott, published 2004)
